Measured values taken from the RNAGym collection of RNA variant scans (doi:10.1073/pnas.2313332121).
This sample holds only a part of the variants without activity.

B1: TPR 5TU (parent)
chain: GGAUCUUCUCGAUCUAACAAAAAAGACAAAUCUGCCACAAAGCUUGAGAGCAUCUUCGGAUGCAGAGGCGGCAGCCUUCGGUGGCGCGAUAGCGCCAACGUUCUCAACUAUGACACGCAAAACGCGUGCUCCGUUGAAUGGAGUUUAUCAUG

Variants of: B1
Test: polymerase ribozyme fitness, log enrichment relative to wild type (log ratio); higher = more active; in vitro selection for triplet polymerase activity
In short: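 Each subunit of a heterodimeric triplet polymerase ribozyme was represented by a PCR-built, transcribed mutant library that underwent triplicate single-round in vitro selection with frozen incubation at −7 °C. Extended constructs were recovered by gel excision, streptavidin-bead capture and RT-PCR, and Illumina sequencing of input and output libraries kept genotypes with ≥10 input reads and ≥1 read per output. Fitness is the logarithm of genotype enrichment relative to wild-type enrichment, from inverse-variance-weighted replicate averages, with a logarithm base of 2.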

GGAUUUUCUCGAUCUAACAAAAAAGACAAAUCUGCCACAAAGCUUAAGAGCGUCUUCGGAUGCAGAGGCGGCAGCCUUCGGUGGUGCGAUAGCGCCAACGUUCUCAUCUAUGACACGAAAAACGCGUGCUCCGUUGUAUGGAGUUUAUCAUG [C5U G46A A52G C85U A107U C118A A137U] and GGAUUUUCUCGAUCUAACAAAAAAGACAAAUCUGCCACAAAGCUUGAGAGCAUCUUCGGAUGCAGAGGCGGCAGCCUUCGGUGGCGCGAUAGCGCCAACGUUCUUAACUAUGACACGCAAAACGCGUGCUCCGUUGAUUGGAGUUUAUCAUG [C5U C105U A138U] cannot be ordered by “polymerase ribozyme fitness (log ratio)” value: ≤ -4.2 for the first, ≤ -4.2 for the second.

GGAUCAUCUCGAUCUCACAAAAAAGAUAAAGCUGCCACAAAGCUUGAGAGCCUGUUCGGAUGCAGAGGCGGCAGCCUUCGGUGGCGCGAUAGCGCCAACGUUCUCAACUAUGACACGUAAAACGCGUGCUCCGUUGAAUGGAGUUUAUCAUG [U6A A16C C27U U31G A52C C54G C118U] and GGAUUUUCUCGAUCUAACAAAAAAGACAAAUCAGCCAUAAAGCUUGAGAGCAUCUUGGGAUGCAGAGGCGGCAGCCUUCGGUGGCGCGAUAGUGCCAUCGUUCUCAACUAUGACACGCAAAACGCGUGCUCCGUUGAAUGGAGUUUAUCAUG [C5U U33A C38U C57G C93U A98U] cannot be ordered by “polymerase ribozyme fitness (log ratio)” value: ≤ -4.2 for the first, ≤ -4.2 for the second.

Going from GGAUCAUCUCGGUCUACCAAAAAACACAAAUCUGCCACAAAGCUUGAGAGCAUCGUCGGAUGCAGAGGCGGCAGCCUUCGGUGGCGCGGUAGCGCCAACGUUCUCAACUAUGACACGCAAAACGCGUGCUCCGUUGAAUGGAGUUUAUCAUG [U6A A12G A17C G25C U55G A89G] to GGAUUUUCCCGAUCUAACAAAAAAGACACAUCUGCCACAAAGCUUGAGAGCAUCUUCGGAUGCAGAGGCGGCAGCCUUCGGUGGCGCGAUAGUGCCAACGUUUUCAACUAUGACACGCAAAACGCUUGCUCCGUUGAAUGGAGUUUAUCAUG [C5U U9C A29C C93U C103U G126U], the “polymerase ribozyme fitness (log ratio)” value falls from -3.61 to ≤ -4.2.

Going from GGAUUUUCUCGAUCUAACAAAAAAGACAAAUCUGCCACAAAGCUUGAGAGCAUCUUCGGAUGCAGAGGCGGCAGCCUUCGGUGGCGCGAUAGUGCCAACGUUCUCAACUAUGACACGCAAAACGCGUGCUCCGUUGAAUGGAGUUUAUCAUG [C5U C93U] to GGAUUUUCUCGAUCUAACAAAAAAGACAAAUCUGCCACAAAGCUUGAGAGCAUCUAAGGAUGCAGAGGCGGCAGCCUUCGGUGGGGCGAUAGCGCCAACGUUCUCAACUAUGACACGCAAAACGCGUGCUCCGUUGAAUGGAGUUUAUCAUG [C5U U56A C57A C85G], the “polymerase ribozyme fitness (log ratio)” value falls from 0.375 to -0.724.

GGAUCAUCUCGAUCUCACAGAAAAGACAAAUCUGCCACAAAGCUUGAGAGCAUCUUCGGAUCCAGAGGCGGCAGCCUUCGGUGGCGCGAUUGCGCCAACGUUCUCAACUUUGACACGCAAAACGCGUGCUCCGUUGAAUGGAGUUUAUCAUG [U6A A16C A20G G62C A91U A110U] and GGAUUUUCUCGAACUACCAAAAAAGAGUAAUCUGCCACAAAGCUUGAGAGCCUCUUCGGAUGCAGAGGCGGCAGCCUUCGGUGGUGCGAUAGCGCCAACGUUCUCAACUAUGCCACGCAAAACGCGAGCUCCGUUGAAUGGAGGUUAUCAUG [C5U U13A A17C C27G A28U A52C C85U A113C U127A U144G] cannot be ordered by “polymerase ribozyme fitness (log ratio)” value: ≤ -4.2 for the first, ≤ -4.2 for the second.

Going from GGAUUUUCUCGAUCUAACAAAAAAGACAAAUCUGCCACAAAGCUUAAGAGCAUCUUCGGAGGCAGAGGCGGCAGCCUUCGGUGGCGCGAUAGCGCCAACGUUCUCAACUAUGACACGCAAAACGCGUGCUCCGUUGAAUGGAGUUUAUCAUG [C5U G46A U61G] to GGAUUUGCUCGAUCUAACAAAAAAGACACAUCUGCCACAAAGCUUGAGGCCAUCUUCGGAUGCAGAGGCGGCAGCAUUCGGUGGCGUGAUAGCGCCAACGUUCUCAACUAUGACACGCAAAACGCGUGCUACAUUGAAUGGAGUGUAUCAUG [C5U U7G A29C A49G G50C C76A C87U C131A G133A U145G], the “polymerase ribozyme fitness (log ratio)” value falls from -4.13 to ≤ -4.2.

GGAUUUUCUCGAUCUAACAAAAAAGACAAAUCUGCCACAAAGCUUGAGAGCAUCGUCGGAUGCAGAGGCGGCAGCCUUGGGUGGCGAGAUAGCGCCUACGUUCUCCACUAUGACACGCAAAACGCGUGCUCCGUUGAAUGGAGUUUAUCAUG [C5U U55G C79G C87A A97U A106C] and GGAUUGUCUCGAUUUAACACAAAAGUCAAAUCUGCCCCAAAGCUUGAGAGCAUCUUCGGAUGCAGUGGCGGCAGCCUUCGGUGGCGCGAUAGCGCCAACGUUCUCAACUAUGACACGCAGAACGCGUGCUCCGUUGAAUGGAGUUUAUCAUG [C5U U6G C14U A20C A26U A37C A66U A120G] cannot be ordered by “polymerase ribozyme fitness (log ratio)” value: ≤ -4.2 for the first, ≤ -4.2 for the second.

Compared with GGAUUUUCUCGAUCUAACAAAAAAGACAAAUCUGCCACAAAGCUAGCGAGCAUCUUCGGAUUCAGAGGUGGCAGCCUUCGGUGGCGCGAUAGCGCCAACGUUCUCAACUAUGACACGCAAAACGCGUGCUCCGUUGAAUGGAGUUUAUCAUG [C5U U45A A47C G62U C69U], GGAUUUUCUCGAUCUAACAAAAAAGACAAAUCUGCCACAAAGCUUGAGAGCAUCUUCGGAUGCAGAGGCGGCAGCCUUCGGUGGCGCGAUAGCGCCAACGUUCUCAACUAUGACACGCAAAACGCGUGCUCCGUUGAAUGCAGUUUAUCAUG [C5U G141C] is higher in “polymerase ribozyme fitness (log ratio)” value: ≤ -4.2 for the first, -0.459 for the second.

Going from GGAUUUUCUCGAUCUAACAAAAAAGACAAAUCUGCCACAAAGCUUGAGAGCAUCUUCGGAUGCAGAGGCGGCAGCCUUCGGUGGCGCGAUAGCGCAAACGUUCUCAACUAUGACACGCAAAACGCGUGCUCCGUUGAAUGGAGUUUAUCAUG [C5U C96A] to GGAUUUUCUCGAUCUAACAAAAAAGACAAAUCUGCCACAAAGCUUGAGAGCAUCUUCGGAUGCAGAGGCGGCAGCCUUCGGAGGCGCGAUAGCGCCAACGUUGUCAACUAUGUCACGCAAAACGCGUGCUCCGUUGCAUGGAGUUUAACAUG [C5U U82A C103G A113U A137C U148A], the “polymerase ribozyme fitness (log ratio)” value falls from 0.48 to ≤ -4.2.

With GGAUUUUCGCGCUCUAACAAAAAAGACAAAUCGGCCACAAAGCUUGAGAGCAUCUUCAGAUGCAGAGGCGGCAGCCUUCGGUGGCGCAAUGGCACCAACGUUCUCAACUAUGCCACGCAACACGCGUGCUCCGUUGAAUGGAGUUUAUCAUG [C5U U9G A12C U33G G58A G88A A91G G94A A113C A121C] the “polymerase ribozyme fitness (log ratio)” value was ≤ -4.2.
